In patent US6713604 (TEXAS BIOTECHNOLOGY, dated 2004):
Bridges are numbered along the chain shown (N, C = ends). Where no end group is shown, it is not given here. [ ]: non-standard residue; d: D form.

The binders below were run against T1, integrin α4β1 (human, UniProt P13612 34-1032; P05556 21-798) (assay: inhibition of HL-60 cell (α4β1) binding to VCAM-IgG coated beads, fluorimetry).
T1 construct: whole, on cells; also called VLA-4; very late antigen-4
Procedure: The media was collected and active protein was purified by immunoprecipitation using Dynal magnetic polystyrene beads coated with goat anti-mouse IgG. Following immunoprecipitation, the beads bound cells that expressed the integrin α_4β_1 such as Ramos and HL-60.
HL-60 cells were fluorescently labeled with Calcein AM C-3099 (Molecular Probes) and resuspended in 1 ml of binding buffer (Hank's balanced salt solution, pH 7.4, 1.0 mM CaCl_2, 1.0 mM MgCl_2). The beads (10 µl, 4×10^6 beads/ml) were placed in wells of a 96-well microtiter dish with 10 µl of peptide at various concentrations. The beads were incubated with 10 µl of labeled cells (10^7 cells/ml) for 10 min at room temperature. Following immobilization of the beads onto the plastic with a magnet, unbound cells were removed by washing three times with binding buffer. The remaining bound cells were lysed in 50 mM Tris, pH 7.4, 5.0 mM EDTA, 1.0% NP-40 and quantitated by fluorimetry using a Millipore Cytofluor 2350 fluorimeter. Dose response curves were calculated and IC$50$ values determined. Alternatively, the percent adhesion was determined at a single peptide concentration for comparison among peptides.

T1 sequence (P13612 34-1032, chain 1 of 2): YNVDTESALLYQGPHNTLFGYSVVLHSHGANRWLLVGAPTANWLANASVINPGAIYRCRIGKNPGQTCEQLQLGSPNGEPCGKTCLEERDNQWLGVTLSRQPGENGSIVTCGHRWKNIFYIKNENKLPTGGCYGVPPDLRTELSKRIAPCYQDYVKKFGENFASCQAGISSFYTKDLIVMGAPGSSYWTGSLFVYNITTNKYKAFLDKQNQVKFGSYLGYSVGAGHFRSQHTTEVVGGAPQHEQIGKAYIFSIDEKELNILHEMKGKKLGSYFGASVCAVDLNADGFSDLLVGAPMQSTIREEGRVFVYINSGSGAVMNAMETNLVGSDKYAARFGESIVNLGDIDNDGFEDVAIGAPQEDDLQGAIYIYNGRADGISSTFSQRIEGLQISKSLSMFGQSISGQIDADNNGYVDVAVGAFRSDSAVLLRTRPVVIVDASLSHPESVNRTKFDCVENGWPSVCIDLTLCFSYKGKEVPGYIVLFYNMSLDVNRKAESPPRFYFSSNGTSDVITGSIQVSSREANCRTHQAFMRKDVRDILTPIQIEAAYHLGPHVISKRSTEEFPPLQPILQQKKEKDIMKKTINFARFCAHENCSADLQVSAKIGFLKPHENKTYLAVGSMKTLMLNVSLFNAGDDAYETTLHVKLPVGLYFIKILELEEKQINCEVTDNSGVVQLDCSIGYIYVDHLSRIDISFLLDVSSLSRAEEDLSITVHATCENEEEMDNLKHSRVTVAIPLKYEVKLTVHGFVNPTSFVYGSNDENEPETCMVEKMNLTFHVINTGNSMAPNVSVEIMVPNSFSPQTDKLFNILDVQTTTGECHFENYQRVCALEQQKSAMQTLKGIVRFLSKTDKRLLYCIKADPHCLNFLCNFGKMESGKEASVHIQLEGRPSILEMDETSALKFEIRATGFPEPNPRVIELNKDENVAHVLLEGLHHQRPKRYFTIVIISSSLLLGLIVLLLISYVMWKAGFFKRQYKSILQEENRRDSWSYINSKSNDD
T1 sequence (P05556 21-798, chain 2 of 2): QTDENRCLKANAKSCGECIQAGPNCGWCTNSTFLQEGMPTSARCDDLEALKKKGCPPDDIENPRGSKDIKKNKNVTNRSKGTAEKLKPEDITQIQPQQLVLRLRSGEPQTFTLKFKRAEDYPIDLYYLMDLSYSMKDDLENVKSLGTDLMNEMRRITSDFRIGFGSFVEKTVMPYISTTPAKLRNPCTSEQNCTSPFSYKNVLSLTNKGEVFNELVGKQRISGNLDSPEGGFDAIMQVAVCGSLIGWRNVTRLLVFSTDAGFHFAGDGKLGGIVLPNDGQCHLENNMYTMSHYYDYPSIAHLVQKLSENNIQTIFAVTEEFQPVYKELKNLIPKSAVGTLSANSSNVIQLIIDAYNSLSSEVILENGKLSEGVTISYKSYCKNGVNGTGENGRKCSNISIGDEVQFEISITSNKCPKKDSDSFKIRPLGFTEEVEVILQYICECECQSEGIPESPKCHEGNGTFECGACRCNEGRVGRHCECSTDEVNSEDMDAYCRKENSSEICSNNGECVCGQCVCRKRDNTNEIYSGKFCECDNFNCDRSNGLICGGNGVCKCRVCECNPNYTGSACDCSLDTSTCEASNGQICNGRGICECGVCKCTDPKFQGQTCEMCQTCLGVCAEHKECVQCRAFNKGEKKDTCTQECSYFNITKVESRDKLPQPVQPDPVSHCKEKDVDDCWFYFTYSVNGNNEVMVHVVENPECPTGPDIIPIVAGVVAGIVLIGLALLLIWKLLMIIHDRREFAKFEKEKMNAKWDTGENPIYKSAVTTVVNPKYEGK

| Binder | peptide concentration that significantly inhibits binding [µM] |
| --- | --- |
| Ac-CWLDVC-OH (disulfide 1-6; SMILES CC(=O)N[C@H]1CSSC[C@@H](C(=O)O)NC(=O)[C@H](C(C)C)NC(=O)[C@H](CC(=O)O)NC(=O)[C@H](CC(C)C)NC(=O)[C@H](Cc2c[nH]c3ccccc23)NC1=O, Disulfide cyclic peptide; also called Ac-Cys-Trp-Leu-Asp-Val-Cys-acid) [SEQ ID NO 18] | < 10 |
| CWIDVC-OH (disulfide 1-6; N-terminus assumed; SMILES CC[C@H](C)[C@@H]1NC(=O)[C@H](Cc2c[nH]c3ccccc23)NC(=O)[C@@H](N)CSSC[C@@H](C(=O)O)NC(=O)[C@H](C(C)C)NC(=O)[C@H](CC(=O)O)NC1=O, Disulfide cyclic peptide; also called Cys-Trp-Ile-Asp-Val-Cys-acid) [SEQ ID NO 23] | < 10 |
| CFLDVC-OH (disulfide 1-6; N-terminus assumed; SMILES CC(C)C[C@@H]1NC(=O)[C@H](Cc2ccccc2)NC(=O)[C@@H](N)CSSC[C@@H](C(=O)O)NC(=O)[C@H](C(C)C)NC(=O)[C@H](CC(=O)O)NC1=O, Disulfide cyclic peptide; also called Cys-Phe-Leu-Asp-Val-Cys-acid) [SEQ ID NO 21] | < 10 |
| CYLDVC-OH (disulfide 1-6; N-terminus assumed; SMILES CC(C)C[C@@H]1NC(=O)[C@H](Cc2ccc(O)cc2)NC(=O)[C@@H](N)CSSC[C@@H](C(=O)O)NC(=O)[C@H](C(C)C)NC(=O)[C@H](CC(=O)O)NC1=O, Disulfide cyclic peptide; also called Cys-Tyr-Leu-Asp-Val-Cys-acid) [SEQ ID NO 19] | < 10 |
| CWLDWC-OH (disulfide 1-6; N-terminus assumed; SMILES CC(C)C[C@@H]1NC(=O)[C@H](Cc2c[nH]c3ccccc23)NC(=O)[C@@H](N)CSSC[C@@H](C(=O)O)NC(=O)[C@H](Cc2c[nH]c3ccccc23)NC(=O)[C@H](CC(=O)O)NC1=O, Disulfide cyclic peptide; also called Cys-Trp-Leu-Asp-Trp-Cys-acid) [SEQ ID NO 22] | < 10 |
| CWLDFC-OH (disulfide 1-6; N-terminus assumed; SMILES CC(C)C[C@@H]1NC(=O)[C@H](Cc2c[nH]c3ccccc23)NC(=O)[C@@H](N)CSSC[C@@H](C(=O)O)NC(=O)[C@H](Cc2ccccc2)NC(=O)[C@H](CC(=O)O)NC1=O, Disulfide cyclic peptide; also called Cys-Trp-Leu-Asp-Phe-Cys-acid) [SEQ ID NO 20] | < 10 |
| CEWLDYC-OH (disulfide 1-7; N-terminus assumed; SMILES CC(C)C[C@@H]1NC(=O)[C@H](Cc2c[nH]c3ccccc23)NC(=O)[C@H](CCC(=O)O)NC(=O)[C@@H](N)CSSC[C@@H](C(=O)O)NC(=O)[C@H](Cc2ccc(O)cc2)NC(=O)[C@H](CC(=O)O)NC1=O, Disulfide cyclic peptide; also called Cys-Glu-Trp-Leu-Asp-Tyr-Cys-acid) [SEQ ID NO 36] | < 10 |
| CSWLDVC (disulfide 1-7, Disulfide cyclic peptide; also called Cys-Ser-Trp-Leu-Asp-Val-Cys) [SEQ ID NO 16] | < 10 |
| C[dW]LDVC-OH (disulfide 1-6; N-terminus assumed; SMILES CC(C)C[C@@H]1NC(=O)[C@@H](Cc2c[nH]c3ccccc23)NC(=O)[C@@H](N)CSSC[C@@H](C(=O)O)NC(=O)[C@H](C(C)C)NC(=O)[C@H](CC(=O)O)NC1=O, Disulfide cyclic peptide; also called Cys-dTrp-Leu-Asp-Val-Cys-acid) [SEQ ID NO 17] | < 10 |

Now from value to binder:

| peptide concentration that significantly inhibits binding [µM] | Binder |
| --- | --- |
| < 10 | CWVDVC-OH (disulfide 1-6; N-terminus assumed; SMILES CC(C)[C@@H]1NC(=O)[C@H](CC(=O)O)NC(=O)[C@H](C(C)C)NC(=O)[C@H](Cc2c[nH]c3ccccc23)NC(=O)[C@@H](N)CSSC[C@@H](C(=O)O)NC1=O, Disulfide cyclic peptide; also called Cys-Trp-Val-Asp-Val-Cys-acid) [SEQ ID NO 25] |
| < 10 | CWLDYC-OH (disulfide 1-6; N-terminus assumed; SMILES CC(C)C[C@@H]1NC(=O)[C@H](Cc2c[nH]c3ccccc23)NC(=O)[C@@H](N)CSSC[C@@H](C(=O)O)NC(=O)[C@H](Cc2ccc(O)cc2)NC(=O)[C@H](CC(=O)O)NC1=O, Disulfide cyclic peptide; also called Cys-Trp-Leu-Asp-Tyr-Cys-acid) [SEQ ID NO 29] |
| < 10 | CWKDVC-OH (disulfide 1-6; N-terminus assumed; SMILES CC(C)[C@@H]1NC(=O)[C@H](CC(=O)O)NC(=O)[C@H](CCCCN)NC(=O)[C@H](Cc2c[nH]c3ccccc23)NC(=O)[C@@H](N)CSSC[C@@H](C(=O)O)NC1=O, Disulfide cyclic peptide; also called Cys-Trp-Lys-Asp-Val-Cys-acid) [SEQ ID NO 26] |
| < 10 | CWLDLC-OH (disulfide 1-6; N-terminus assumed; SMILES CC(C)C[C@@H]1NC(=O)[C@H](CC(=O)O)NC(=O)[C@H](CC(C)C)NC(=O)[C@H](Cc2c[nH]c3ccccc23)NC(=O)[C@@H](N)CSSC[C@@H](C(=O)O)NC1=O, Disulfide cyclic peptide; also called Cys-Trp-Leu-Asp-Leu-Cys-acid) [SEQ ID NO 28] |
| < 10 | CWMDVC-OH (disulfide 1-6; N-terminus assumed; SMILES CSCC[C@@H]1NC(=O)[C@H](Cc2c[nH]c3ccccc23)NC(=O)[C@@H](N)CSSC[C@@H](C(=O)O)NC(=O)[C@H](C(C)C)NC(=O)[C@H](CC(=O)O)NC1=O, Disulfide cyclic peptide; also called Cys-Trp-Met-Asp-Val-Cys-acid) [SEQ ID NO 24] |
| < 10 | [dC]WLDVC-OH (disulfide 1-6; N-terminus assumed; SMILES CC(C)C[C@@H]1NC(=O)[C@H](Cc2c[nH]c3ccccc23)NC(=O)[C@H](N)CSSC[C@@H](C(=O)O)NC(=O)[C@H](C(C)C)NC(=O)[C@H](CC(=O)O)NC1=O, Disulfide cyclic peptide; also called dCys-Trp-Leu-Asp-Val-Cys-acid) [SEQ ID NO 32] |
| < 10 | CSFLDYC-OH (disulfide 1-7; N-terminus assumed; SMILES CC(C)C[C@@H]1NC(=O)[C@H](Cc2ccccc2)NC(=O)[C@H](CO)NC(=O)[C@@H](N)CSSC[C@@H](C(=O)O)NC(=O)[C@H](Cc2ccc(O)cc2)NC(=O)[C@H](CC(=O)O)NC1=O, Disulfide cyclic peptide; also called Cys-Ser-Phe-Leu-Asp-Tyr-Cys-acid) [SEQ ID NO 37] |
| < 10 | CEWLDVC-OH (disulfide 1-7; N-terminus assumed; SMILES CC(C)C[C@@H]1NC(=O)[C@H](Cc2c[nH]c3ccccc23)NC(=O)[C@H](CCC(=O)O)NC(=O)[C@@H](N)CSSC[C@@H](C(=O)O)NC(=O)[C@H](C(C)C)NC(=O)[C@H](CC(=O)O)NC1=O, Disulfide cyclic peptide; also called Cys-Glu-Trp-Leu-Asp-Val-Cys-acid) [SEQ ID NO 34] |
| < 10 | CEWLDVC-NH2 (disulfide 1-7; N-terminus assumed; SMILES CC(C)C[C@@H]1NC(=O)[C@H](Cc2c[nH]c3ccccc23)NC(=O)[C@H](CCC(=O)O)NC(=O)[C@@H](N)CSSC[C@@H](C(N)=O)NC(=O)[C@H](C(C)C)NC(=O)[C@H](CC(=O)O)NC1=O, Disulfide cyclic peptide; also called Cys-Glu-Trp-Leu-Asp-Val-Cys-amide) [SEQ ID NO 33] |
| < 10 | CWLDVC-OH (disulfide 1-6; N-terminus assumed; SMILES CC(C)C[C@@H]1NC(=O)[C@H](Cc2c[nH]c3ccccc23)NC(=O)[C@@H](N)CSSC[C@@H](C(=O)O)NC(=O)[C@H](C(C)C)NC(=O)[C@H](CC(=O)O)NC1=O, Disulfide cyclic peptide; also called Cys-Trp-Leu-Asp-Val-Cys-acid) [SEQ ID NO 31] |
